The values that follow come from PMC12808120.

Data set [1] addresses IGF2BP3 (recombinant) (UniProt O00425). Nature of the data set: filter binding. The note with it: FBA/EMSA: 10 mM Tris-Cl pH 7.5, 50 mM KCl, 1 mM EDTA, 0.05% Triton X, 5% glycerol, 1 mM DTT, 37 C 20 min, pull-down: lysate mixed 1:1 with 2x TENT (100 mM Tris …). (In EMSA bound probe runs differently from free probe, usually more slowly.)
For data set [2] the target is unchanged. Nature of the data set: EMSA. Particulars: no binding up to 100 nM; Kd >>100 nM; FBA/EMSA: 10 mM Tris-Cl pH 7.5, 50 mM KCl, 1 mM EDTA, 0.05% Triton X, 5% glycerol, 1 mM DTT, 37 C 20 min; pull-down: lysate mixed 1:1 with 2x TENT (100 mM Tris …).

Broadly, the Kd is the constant that tells how readily two partners part at equilibrium.

Bounds are passed on as bounds.

Sequence of IGF2BP3 (recombinant) (O00425 whole entry): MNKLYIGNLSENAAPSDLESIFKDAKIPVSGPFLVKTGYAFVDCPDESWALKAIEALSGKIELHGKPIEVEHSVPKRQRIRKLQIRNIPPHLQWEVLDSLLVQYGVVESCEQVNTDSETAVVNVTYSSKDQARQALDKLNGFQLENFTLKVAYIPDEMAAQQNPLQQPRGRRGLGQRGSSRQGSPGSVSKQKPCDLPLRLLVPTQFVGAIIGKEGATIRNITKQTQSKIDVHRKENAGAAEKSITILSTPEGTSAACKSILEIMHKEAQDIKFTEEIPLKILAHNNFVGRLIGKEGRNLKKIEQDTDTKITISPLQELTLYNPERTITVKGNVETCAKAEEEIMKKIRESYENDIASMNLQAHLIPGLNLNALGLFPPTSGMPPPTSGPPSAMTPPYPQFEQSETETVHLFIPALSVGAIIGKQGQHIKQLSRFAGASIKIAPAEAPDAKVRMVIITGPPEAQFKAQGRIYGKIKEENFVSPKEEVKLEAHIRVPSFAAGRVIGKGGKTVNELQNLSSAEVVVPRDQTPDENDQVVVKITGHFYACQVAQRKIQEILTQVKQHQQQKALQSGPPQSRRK

“FMR1-5'UTR RNA with 16 CGG repeats (FMR1-16CGG)”: the Kd with IGF2BP3 (recombinant) [1] amounted to 0.00315 µM.

Turning to “UAAUAAUAAUAAUAAUAAUAAUAAUAAUAAUAAUAAUAAUAAUAAUAAUAAUAAUAAUAA [(UAA)20 RNA]”, the dissociation constant (Kd) with IGF2BP3 (recombinant) [1] (no binding up to 100 nM, Kd >>100 nM) was above 0.1 µM; with IGF2BP3 (recombinant) [2], above 0.1 µM.
